The source of these data is paper PMC6697640.

The target in the assay is 3X N-terminal FLAG-tagged PTEN (phosphatase and tensin homolog), wild type (UniProt P60484). The experiment in a line: native gel or EMSA; co-IPs from total lysate of BT-549-PTEN cells followed by Western blot under non-denaturing conditions; dimers seen in the input lane and in the co-immunoprecipitate.

“3X N-terminal FLAG-tagged PTEN (phosphatase and tensin homolog), wild type, P60484 1-403 (enzyme; other documents disagree on this pair)” registered a stoichiometry N of 2.

For orientation: stoichiometry N means the number of molecules, sites or subunits per partner or assembly.
